Results taken from US20150093398A1, “Methods and Compositions for Treating or Preventing Cancer” (MERCK SHARP & DOHME CORP., priority 2005, published 2015).

Columns and labels:
[1] = system: SK-N-AS neuroblatoma cells; assay: SK-N-AS neuroblastoma xenograft tumor growth in mice (03 IGFR-09, 19D12 vs. Cytoxan); type: in vivo, Athymic nude mice
Description: (§1) Athymic nude mice were inoculated with tumor cells in the right flank, subcutaneously, along with Matrigel (1:1 cells:gel). In these experiments, 5×10^6 cells/mouse in a 1:1 mix with regular matrigel were inoculated subcutaneously. Tumor size was measured with calipers and the data was entered into the labcat program. Mice were grouped with average size of 100 mm^3. Tumor size and body weight were measured twice weekly.
(§2) In these experiments, mice were dosed twice per week, intraperitoneally (i.p.) with antibody 19D12 and chemotherapeutic agents at the indicated frequency. Tumor size and mouse body weight was measured twice weekly after treatment.

[2] = system: SJSA-1 osteosarcoma cells; assay: SJSA-1 osteosarcoma xenograft model (05-IGFR-21), dosing from 15 days after inoculation; type: in vivo, female nude mouse (strain NU/NU)
Description: Xenograft tumor size was measured twice per week with a caliper and captured electronically by the LabCat program. […] For the experiments set forth in Table 9, dosing was initiated 15 days after inoculation. […] Xenograft tumor size was measured twice per week with a caliper and captured electronically by the LabCat program.

[3] = system: SJCRH30 rhabdomyosarcoma cells; assay: SJCRH30 rhabdomyosarcoma xenograft tumor growth in mice (05 IGFR-01, 19D12 and Cytoxan); type: in vivo, Athymic nude mice
Description: as §1, §2

[4] = system: Hs700T malignant pancreatic cells; assay: Hs700T pancreatic xenograft tumor growth in mice (04 IGFR-16, 19D12 and Gemzar combination);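 note: subcutaneous flank xenografts in athymic nude mice, treated once tumors averaged 100 mm^3, antibody given intraperitoneally twice weekly, tumor size measured by calipers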
Description: as §1, §2

[5] = system: SK-N-FI neuroblastoma cells; assay: SK-N-FI neuroblastoma xenograft tumor growth in mice (04 IGFR-20); type: in vivo, Athymic nude mice
[6] = system: SK-N-MC neuroblastoma cells; assay: SK-N-MC neuroblastoma xenograft tumor growth in mice (04 IGFR-13, 19D12 vs. Cisplatin); type: in vivo, Athymic nude mice

B1: 19D12: anti-IGF1R antibody: light chain variable region amino acids 20-128 of SEQ ID NO: 8, heavy chain variable region amino acids 20-137 of SEQ ID NO: 10 (antibody, V domains shown)
VL: MSPSQLIGFLLLWVPASRGEIVLTQSPGTLSVSPGERATLSCRASQSIGSSLHWYQQKPGQAPRLLIKYASQSLSGIPDRFSGSGSGTDFTLTISRLEPEDFAVYYCHQSSRLPHTFGQGTKVEIKRT
VH: MEFGLSWVFLVAILKGVQCEVQLVQSGGGLVKPGGSLRLSCAASGFTFSSFAMHWVRQAPGKGLEWISVIDTRGATYYADSVKGRFTISRDNAKNSLYLQMNSLRAEDTAVYYCARLGNFYYGMDVWGQGTTVTVSS
modifications: variable regions only: LC 20-128, HC 20-137; constant regions lack entries
Which results are given for B1?
Tumor Average Size ([1]; 0.004 mg 19D12/IgG1, Day 4): 335 mm^3; Tumor Average Size ([1]; 0.004 mg 19D12/IgG1, Day 7): 568 mm^3; Tumor Average Size ([1]; 0.004 mg 19D12/IgG1, Day 11): 1314 mm^3; Tumor Average Size ([1]; 0.004 mg 19D12/IgG1, Day -1): 142 mm^3; Tumor Average Size ([1]; 0.02 mg 19D12/IgG1, Day 4): 231 mm^3; Tumor Average Size ([1]; 0.02 mg 19D12/IgG1, Day 7): 307 mm^3; Tumor Average Size ([1]; 0.02 mg 19D12/IgG1, Day 11): 547 mm^3; Tumor Average Size ([1]; 0.02 mg 19D12/IgG1, Day -1): 137 mm^3; Tumor Average Size ([1]; 0.1 mg 19D12/IgG1, Day 4): 249 mm^3; Tumor Average Size ([1]; 0.1 mg 19D12/IgG1, Day 7): 321 mm^3; Tumor Average Size ([1]; 0.1 mg 19D12/IgG1, Day 11): 615 mm^3; Tumor Average Size ([1]; 0.1 mg 19D12/IgG1, Day -1): 135 mm^3; Tumor Average Size ([1]; 0.5 mg 19D12/IgG1, Day 4): 205 mm^3; Tumor Average Size ([1]; 0.5 mg 19D12/IgG1, Day 7): 273 mm^3; Tumor Average Size ([1]; 0.5 mg 19D12/IgG1, Day 11): 492 mm^3; Tumor Average Size ([1]; 0.5 mg 19D12/IgG1, Day -1): 123 mm^3; Mean Tumor size ([2]; 0.04 mg 19D12, Day 0): 142 mm3; Mean Tumor size ([2]; 0.04 mg 19D12, Day 4): 153 mm3; Mean Tumor size ([2]; 0.04 mg 19D12, Day 7): 222 mm3; Mean Tumor size ([2]; 0.04 mg 19D12, Day 11): 306 mm3; Mean Tumor size ([2]; 0.04 mg 19D12, Day 14): 431 mm3; Mean Tumor size ([2]; 0.1 mg 19D12, Day 0): 145 mm3; Mean Tumor size ([2]; 0.1 mg 19D12, Day 4): 147 mm3; Mean Tumor size ([2]; 0.1 mg 19D12, Day 7): 151 mm3; Mean Tumor size ([2]; 0.1 mg 19D12, Day 11): 212 mm3; Mean Tumor size ([2]; 0.1 mg 19D12, Day 14): 251 mm3; regression of tumor volume (in words) ([2]; ip twice a week, 0.04 or 0.1 mg per mouse, with Cytoxan 50 or 100 mpk once a week, summary of Table 9): anti-IGF1R-dependent regression of tumor volume; Tumor Average Size ([3]; 0.02 mg 19D12, Day 0): 74 mm^3; Tumor Average Size ([3]; 0.02 mg 19D12, Day 4): 144 mm^3; Tumor Average Size ([3]; 0.02 mg 19D12, Day 7): 337 mm^3; Tumor Average Size ([3]; 0.02 mg 19D12, Day 11): 534 mm^3; Tumor Average Size ([3]; 0.02 mg 19D12, Day 14): 714 mm^3; Tumor Average Size ([3]; 0.02 mg 19D12, Day 18): 926 mm^3; Tumor Average Size ([3]; 0.1 mg 19D12, Day 0): 74 mm^3; Tumor Average Size ([3]; 0.1 mg 19D12, Day 4): 126 mm^3; Tumor Average Size ([3]; 0.1 mg 19D12, Day 7): 232 mm^3; Tumor Average Size ([3]; 0.1 mg 19D12, Day 11): 372 mm^3; Tumor Average Size ([3]; 0.1 mg 19D12, Day 14): 520 mm^3; Tumor Average Size ([3]; 0.1 mg 19D12, Day 18): 681 mm^3; Tumor Average Size ([3]; 1 mg 19D12, Day 0): 75 mm^3; Tumor Average Size ([3]; 1 mg 19D12, Day 4): 103 mm^3; Tumor Average Size ([3]; 1 mg 19D12, Day 7): 183 mm^3; Tumor Average Size ([3]; 1 mg 19D12, Day 11): 284 mm^3; Tumor Average Size ([3]; 1 mg 19D12, Day 14): 442 mm^3; Tumor Average Size ([3]; 1 mg 19D12, Day 18): 562 mm^3; Tumor Average Size ([4]; 0.1 mg 19D12, Day 0): 74 mm^3; Tumor Average Size ([4]; 0.1 mg 19D12, Day 4): 86 mm^3; Tumor Average Size ([4]; 0.1 mg 19D12, Day 7): 89 mm^3; Tumor Average Size ([4]; 0.1 mg 19D12, Day 11): 98 mm^3; Tumor Average Size ([4]; 0.1 mg 19D12, Day 14): 123 mm^3; Tumor Average Size ([4]; 0.1 mg 19D12, Day 18): 165 mm^3; Tumor Average Size ([4]; 0.1 mg 19D12, Day 21): 187 mm^3; Tumor Average Size ([4]; 0.1 mg 19D12, Day 26): 272 mm^3; Tumor Average Size ([4]; 0.1 mg 19D12, Day 29): 335 mm^3; Tumor Average Size ([4]; 0.1 mg 19D12, Day 33): 371 mm^3; Tumor Average Size ([4]; 0.1 mg 19D12, Day 36): 415 mm^3; Tumor Average Size ([4]; 0.5 mg 19D12, Day 0): 75 mm^3; Tumor Average Size ([4]; 0.5 mg 19D12, Day 4): 70 mm^3; Tumor Average Size ([4]; 0.5 mg 19D12, Day 7): 69 mm^3; Tumor Average Size ([4]; 0.5 mg 19D12, Day 11): 71 mm^3; Tumor Average Size ([4]; 0.5 mg 19D12, Day 14): 93 mm^3; Tumor Average Size ([4]; 0.5 mg 19D12, Day 18): 115 mm^3; Tumor Average Size ([4]; 0.5 mg 19D12, Day 21): 137 mm^3; Tumor Average Size ([4]; 0.5 mg 19D12, Day 26): 239 mm^3; Tumor Average Size ([4]; 0.5 mg 19D12, Day 29): 249 mm^3; Tumor Average Size ([4]; 0.5 mg 19D12, Day 33): 282 mm^3; Tumor Average Size ([4]; 0.5 mg 19D12, Day 36): 334 mm^3; Tumor Average Size ([4]; 1 mg 19D12, Day 0): 77 mm^3; Tumor Average Size ([4]; 1 mg 19D12, Day 4): 80 mm^3; Tumor Average Size ([4]; 1 mg 19D12, Day 7): 85 mm^3; Tumor Average Size ([4]; 1 mg 19D12, Day 11): 81 mm^3; Tumor Average Size ([4]; 1 mg 19D12, Day 14): 99 mm^3; Tumor Average Size ([4]; 1 mg 19D12, Day 18): 128 mm^3; Tumor Average Size ([4]; 1 mg 19D12, Day 21): 152 mm^3; Tumor Average Size ([4]; 1 mg 19D12, Day 26): 231 mm^3; Tumor Average Size ([4]; 1 mg 19D12, Day 29): 280 mm^3; Tumor Average Size ([4]; 1 mg 19D12, Day 33): 312 mm^3; Tumor Average Size ([4]; 1 mg 19D12, Day 36): 305 mm^3; Tumor Average Size ([5]; 0.02 mg 19D12, Day 0): 150 mm^3; Tumor Average Size ([5]; 0.02 mg 19D12, Day 5): 181 mm^3; Tumor Average Size ([5]; 0.02 mg 19D12, Day 8): 204 mm^3; Tumor Average Size ([5]; 0.02 mg 19D12, Day 12): 207 mm^3; Tumor Average Size ([5]; 0.02 mg 19D12, Day 15): 217 mm^3; Tumor Average Size ([5]; 0.02 mg 19D12, Day 19): 237 mm^3; Tumor Average Size ([5]; 0.02 mg 19D12, Day 22): 290 mm^3; Tumor Average Size ([5]; 0.1 mg 19D12, Day 0): 151 mm^3; Tumor Average Size ([5]; 0.1 mg 19D12, Day 5): 164 mm^3; Tumor Average Size ([5]; 0.1 mg 19D12, Day 8): 146 mm^3; Tumor Average Size ([5]; 0.1 mg 19D12, Day 12): 154 mm^3; Tumor Average Size ([5]; 0.1 mg 19D12, Day 15): 141 mm^3; Tumor Average Size ([5]; 0.1 mg 19D12, Day 19): 154 mm^3; Tumor Average Size ([5]; 0.1 mg 19D12, Day 22): 170 mm^3; Tumor Average Size ([5]; 1 mg 19D12, Day 0): 155 mm^3; Tumor Average Size ([5]; 1 mg 19D12, Day 5): 161 mm^3; Tumor Average Size ([5]; 1 mg 19D12, Day 8): 128 mm^3; Tumor Average Size ([5]; 1 mg 19D12, Day 12): 126 mm^3; Tumor Average Size ([5]; 1 mg 19D12, Day 15): 118 mm^3; Tumor Average Size ([5]; 1 mg 19D12, Day 19): 117 mm^3; Tumor Average Size ([5]; 1 mg 19D12, Day 22): 122 mm^3; Tumor Average Size ([6]; 0.004 mg 19D12, Day 0): 89 mm^3; Tumor Average Size ([6]; 0.004 mg 19D12, Day 2): 120 mm^3; Tumor Average Size ([6]; 0.004 mg 19D12, Day 6): 146 mm^3; Tumor Average Size ([6]; 0.004 mg 19D12, Day 9): 177 mm^3; Tumor Average Size ([6]; 0.004 mg 19D12, Day 13): 212 mm^3; Tumor Average Size ([6]; 0.004 mg 19D12, Day 16): 235 mm^3; Tumor Average Size ([6]; 0.004 mg 19D12, Day 20): 292 mm^3; Tumor Average Size ([6]; 0.004 mg 19D12, Day 23): 331 mm^3; Tumor Average Size ([6]; 0.004 mg 19D12, Day 24): 331 mm^3; Tumor Average Size ([6]; 0.02 mg 19D12, Day 0): 97 mm^3; Tumor Average Size ([6]; 0.02 mg 19D12, Day 2): 122 mm^3; Tumor Average Size ([6]; 0.02 mg 19D12, Day 6): 151 mm^3; Tumor Average Size ([6]; 0.02 mg 19D12, Day 9): 189 mm^3; Tumor Average Size ([6]; 0.02 mg 19D12, Day 13): 222 mm^3; Tumor Average Size ([6]; 0.02 mg 19D12, Day 16): 248 mm^3; Tumor Average Size ([6]; 0.02 mg 19D12, Day 20): 292 mm^3; Tumor Average Size ([6]; 0.02 mg 19D12, Day 23): 344 mm^3; Tumor Average Size ([6]; 0.02 mg 19D12, Day 24): 344 mm^3; Tumor Average Size ([6]; 0.1 mg 19D12, Day 0): 89 mm^3; Tumor Average Size ([6]; 0.1 mg 19D12, Day 2): 115 mm^3; Tumor Average Size ([6]; 0.1 mg 19D12, Day 6): 144 mm^3; Tumor Average Size ([6]; 0.1 mg 19D12, Day 9): 193 mm^3; Tumor Average Size ([6]; 0.1 mg 19D12, Day 13): 226 mm^3; Tumor Average Size ([6]; 0.1 mg 19D12, Day 16): 245 mm^3; Tumor Average Size ([6]; 0.1 mg 19D12, Day 20): 282 mm^3; Tumor Average Size ([6]; 0.1 mg 19D12, Day 23): 335 mm^3; Tumor Average Size ([6]; 0.1 mg 19D12, Day 24): 335 mm^3; Tumor Average Size ([6]; 0.5 mg 19D12, Day 0): 83 mm^3; Tumor Average Size ([6]; 0.5 mg 19D12, Day 2): 107 mm^3; Tumor Average Size ([6]; 0.5 mg 19D12, Day 6): 133 mm^3; Tumor Average Size ([6]; 0.5 mg 19D12, Day 9): 173 mm^3; Tumor Average Size ([6]; 0.5 mg 19D12, Day 13): 210 mm^3; Tumor Average Size ([6]; 0.5 mg 19D12, Day 16): 234 mm^3; Tumor Average Size ([6]; 0.5 mg 19D12, Day 20): 264 mm^3; Tumor Average Size ([6]; 0.5 mg 19D12, Day 23): 317 mm^3; Tumor Average Size ([6]; 0.5 mg 19D12, Day 24): 317 mm^3
